From PMC2894018 (2010)

Columns and labels:
[1] = biological target: HIV-1 Gag fused to the N- or C-terminal fragment of Venus (HIV-1); assay: split reporter (BiFC, NanoBiT); Venus BiFC in 293T cells cotransfected with VC and VN chimeric Vpr and Gag plasmids; fixed thirty-six hours after transfection; percent BiFC positive cells by flow cytometry
[2] = biological target: HIV-1 Vpr Δ44 fused to the N- or C-terminal fragment of Venus (UniProt P12520); assay: BiFC (bimolecular fluorescence complementation), flow cytometry on cells; details: cells cotransfected with VC and VN fusions of the same Vpr mutant; vector control 0.1; parent: 35.7
[3] = biological target: HIV-1 Gag fused to the N- or C-terminal fragment of Venus (HIV-1); assay: split reporter (BiFC, NanoBiT); Venus BiFC in HeLa cells cotransfected with VN and VC fusion plasmids; thirty-six to forty hours after transfection, fixed; percent BiFC positive cells by flow cytometry and fluorescence microscopy
[4] = biological target: T1, HIV-1 Vpr from NL43 (Vpr^wt) fused to the N- or C-terminal fragment of Venus (HIV-1 (NL43)), P12520; assay: as above; details: remark: other sources report otherwise
T1 chain: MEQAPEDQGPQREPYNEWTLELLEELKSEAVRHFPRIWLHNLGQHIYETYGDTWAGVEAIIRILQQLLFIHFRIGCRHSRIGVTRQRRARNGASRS

[5] = biological target: T1, HIV-1 Vpr from NL43 (Vpr^wt) fused to …; assay: as above; details: remark: other sources report otherwise
[6] = biological target: T1, HIV-1 Vpr from NL43 (Vpr^wt) fused to …; assay: split reporter (BiFC, NanoBiT); Venus BiFC competition: VC-Vpr and VN-Vpr plasmids cotransfected with increasing amounts of untagged Vpr plasmid or empty vector; flow cytometry thirty-six hours after transfection; BiFC positive cells with vector backbone set as 100%; details: remark: other sources report otherwise

**Q.** Which results are given for “HIV-1 Vpr E48A fused to the N- or C-terminal fragment of Venus (from UniProt P12520 1-96) (natural protein)”?
**A.** percent BiFC positive cells (with VC-Gag) [1]: 28%; percent BiFC positive cells (with VN-Gag) [1]: 29%

**Q.** With “HIV-1 Vpr from NL43 (Vpr^wt) fused to the N- or C-terminal fragment of Venus (from UniProt P12520) 44del” as the molecule, how does the response (% BiFC positive cells) [2] read?
**A.** 1

**Q.** How did the percent BiFC positive cells (with VC-Gag) [1] turn out when “HIV-1 Vpr from NL43 (Vpr^wt) fused to the N- or C-terminal fragment of Venus (from UniProt P12520 1-96) (natural protein)” was run?
**A.** 27%

**Q.** What about the percent BiFC positive cells (with VN-Gag) [1] of the same molecule?
**A.** 31%

**Q.** What about the percent fluorescent positive cells (venus-C-Gag and venus-N-Vpr^wt) [3] of the same molecule?
**A.** 29%

**Q.** And the percent fluorescent positive cells (venus-N-Gag and venus-C-Vpr^wt) [3]?
**A.** 34%

**Q.** What does the source list for “HIV-1 Vpr R80A fused to the N- or C-terminal fragment of Venus (from UniProt P12520 1-96) (natural protein)”?
**A.** percent BiFC positive cells (with VC-Gag) [1]: 27%; percent BiFC positive cells (with VN-Gag) [1]: 33%

**Q.** For “HIV-1 Gag fused to the N- or C-terminal fragment of Venus (natural protein)”, which percent BiFC positive cells [3] is on record?
**A.** 30%

B1: HIV-1 Vpr from NL43 (Vpr^wt) fused to the N- or C-terminal fragment of Venus, P12520 1-96 (natural protein)
chain: T1 chain
**Q.** Which percent BiFC positive cells [4] does the source give for B1 here?
**A.** 26%

**Q.** What about the percent BiFC positive cells [5] of the same molecule?
**A.** 35%

B2: untagged HIV-1 Vpr (expressed from pVpr), P12520 1-96 (natural protein)
chain: T1 chain
**Q.** Which percent BiFC positive cells left (VC-Vpr with VN-Vpr, vector backbone as 100%) at a ratio of 1:10 [6] does the source give for B2 here?
**A.** < 20%

**Q.** What about the percent reduction of BiFC positive cells (VC-Vpr with VN-Vpr) at a ratio of 1:2.5 [6] of the same molecule?
**A.** 40%
